According to patent US20170183407A1:

Molecular target: CD19 on tumor target cells (UniProt P15391)
Experiment: cell-based or functional assay

Sequence of UniProt P15391 (P15391 20-556 limits assumed): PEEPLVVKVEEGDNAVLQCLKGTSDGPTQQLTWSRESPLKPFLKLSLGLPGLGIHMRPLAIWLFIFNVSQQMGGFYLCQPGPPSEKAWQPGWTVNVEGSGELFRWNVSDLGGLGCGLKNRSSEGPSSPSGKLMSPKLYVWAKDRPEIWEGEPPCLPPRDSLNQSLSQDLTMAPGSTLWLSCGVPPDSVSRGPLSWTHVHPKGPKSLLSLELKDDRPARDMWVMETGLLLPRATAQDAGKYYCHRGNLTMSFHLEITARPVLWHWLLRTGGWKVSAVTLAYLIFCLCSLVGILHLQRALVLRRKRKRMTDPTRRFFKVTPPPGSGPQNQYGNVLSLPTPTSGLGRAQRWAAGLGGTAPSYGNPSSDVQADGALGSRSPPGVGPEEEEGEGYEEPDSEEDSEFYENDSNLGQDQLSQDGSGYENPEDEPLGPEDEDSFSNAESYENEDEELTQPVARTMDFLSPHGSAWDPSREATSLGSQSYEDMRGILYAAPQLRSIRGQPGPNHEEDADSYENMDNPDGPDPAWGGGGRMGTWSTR

percentage of specific cell lysis (4-hour Chromium Release Assay) [%]	Substance
49	Clinical-grade CD19RCD28mζ CAR (CoOpCD19RCD28ζ), on T cells
52	EZ CAR CD19RCD28mζ CAR (CD19-specific CAR activated through chimeric CD28/CD3-zeta, made with the EZ CAR platform), on T cells
